Primed or numbered codes have the meaning given here. Ends that are not written are not given here. FITC′ = fluorescein isothiocyanate label; Ahx = NCCCCCC(=O)O
B1: M. jannaschii Adriase S1A mutant with C-terminal His-tag (enzyme)
chain: ALIICYYGKNGAVIGGDRRQIFFRGSEENRKILEEKLYSGEIKSEEELYKLAEKLNIKIIIEDDREKVRKISDSVVCGEVRSLGIDAKRRRVYATKGKCAIVDILNDTVTNQTIKEGFGIVVLGNRFLKKKAEEELKRTAKLFPMMPIQQIEDAIKEIFEKLKWHPTVSKEYDIYSVNKYEKNFEEVIKKDIESLFKYREQLRKQLIDFGKVMSIVNKIVKNGEIGVIKDGKLHLYDDYIAIDKIDPNPKVFKVVDVEGNFKDGDIVVIENGDMKIKGTNEKVTTKYIIIHKGSHHHHHH
notes: The entry is the S1A mutant itself
B2: (10)KDPGA(10) peptide, M. jannaschii MtrA-derived, C-terminal FITC (peptide)
peptide: ITQAIKECLSKDPGAIDEDPFIIEL-{K(FITC)}
B3: (5)KDPGA(10) peptide, M. jannaschii MtrA-derived, C-terminal FITC (peptide)
peptide: KECLSKDPGAIDEDPFIIEL-{K(FITC)}
notes: Synthetic peptide (Genscript); also called (5)KDPGA(10F)
B4: (15)KDPGA(10) peptide, M. jannaschii MtrA-derived, N-terminal FITC-Ahx (peptide)
peptide: {FITC′-Ahx}-EDIGKITQAIKECLSKDPGAIDEDPFIIEL
notes: Synthetic peptide (Genscript); also called (F15)KDPGA(10)
B5: (0)KDPGA(10) peptide, M. jannaschii MtrA-derived, C-terminal FITC (peptide)
peptide: KDPGAIDEDPFIIEL-{K(FITC)}
notes: Synthetic peptide (Genscript)
B6: M. jannaschii MtrA^Δ194-245 (enzyme)
chain: MHHHHHHGSMVMSMANKREPAPGWPIVSGEYVVGNPESCVGVVTLGSHGLEQACIDAGAAIAGPCHTENLGIEKVVANYISNPNIRFMILCGSEVQGHITGQCFKALWENGIGDDGGIIGAKGAIPFLENVNKEAVERFRRQIVEVVDLIDCEDIGKITQAIKECLSKDPGAIDEDPFIIELEGGKGGGEEEEGVIKPITPE
notes: For MST it was labelled with NT-647-NHS; also called MJ_0851

Experiments:
[1] = target: B5; assay: microscale thermophoresis (MST), fitted curve, peptide (0)KDPGA(10)
[2] = target: T1, M. jannaschii MtrA^Δ174-245 with N-terminal His6-tag (Methanocaldococcus jannaschii, UniProt Q58261 1-169); assay: microscale thermophoresis (MST), fitted curve, MtrA^Δ174-245
T1 sequence: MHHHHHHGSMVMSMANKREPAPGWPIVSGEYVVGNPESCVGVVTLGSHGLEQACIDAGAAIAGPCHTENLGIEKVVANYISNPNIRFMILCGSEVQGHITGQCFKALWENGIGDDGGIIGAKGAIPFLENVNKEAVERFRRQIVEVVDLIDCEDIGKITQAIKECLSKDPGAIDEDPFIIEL

[3] = target: B6; assay: microscale thermophoresis (MST), fitted curve
[4] = target: B2; assay: microscale thermophoresis (MST), fitted curve, peptide (10)KDPGA(10)
[5] = target: B3; assay: microscale thermophoresis (MST), fitted curve, peptide (5)KDPGA(10)
[6] = target: B4; assay: microscale thermophoresis (MST), fitted curve, peptide (15)KDPGA(10)
[7] = target: B1; assay: microscale thermophoresis (MST); table row (10)KDPGA(10)
[8] = target: B1; assay: microscale thermophoresis (MST); table row (5)KDPGA(10)
[9] = target: B1; assay: microscale thermophoresis (MST); table row (15)KDPGA(10)
[10] = target: B1; assay: microscale thermophoresis (MST); table row (0)KDPGA(10)
[11] = target: B1; assay: microscale thermophoresis (MST), three measurements; table row MtrA
[12] = target: T2, M. jannaschii Adriase with C-terminal His-tag (Methanocaldococcus jannaschii, UniProt Q57968 2-293); assay: SDS-PAGE time course of the reaction in the presence of MtrA, band of the covalent conjugate
T2 construct: Active enzyme; also called unmodified Adriase; MJ_0548
T2 sequence: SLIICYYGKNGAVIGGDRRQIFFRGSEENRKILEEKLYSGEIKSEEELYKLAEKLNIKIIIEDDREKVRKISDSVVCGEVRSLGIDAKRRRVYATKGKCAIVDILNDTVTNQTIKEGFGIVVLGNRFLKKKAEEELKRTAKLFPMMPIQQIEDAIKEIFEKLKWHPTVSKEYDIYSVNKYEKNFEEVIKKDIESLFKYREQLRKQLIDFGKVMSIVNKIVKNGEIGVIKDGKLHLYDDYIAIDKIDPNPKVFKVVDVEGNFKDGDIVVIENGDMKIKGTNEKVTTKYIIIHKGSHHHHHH

[13] = target: B6; assay: size-exclusion chromatography with light scattering (SEC-MALS) of the 1:1 molar mixture
[14] = target: T3, BSA (UniProt P02769 25-607); assay: pulldown on Ni-NTA beads with His6-tagged Adriase, SDS-PAGE of flow-through, washes and eluate
T3 construct: also called control protein BSA

[15] = target: T4, M. mazei Ub-(5)KDPGA(10) with N-terminal His-tag; assay: SDS-PAGE time course of Adriase with Ub-(5)KDPGA(10), band of the covalent conjugate
T4 chain: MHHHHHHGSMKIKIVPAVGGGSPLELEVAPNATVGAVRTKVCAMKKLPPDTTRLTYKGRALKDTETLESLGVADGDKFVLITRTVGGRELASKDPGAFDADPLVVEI

[16] = target: T5, MtrE of M. mazei (subunit of the MtrA-MtrH complex), from whole cell extract (Methanosarcina mazei); assay: pulldown from M. mazei whole cell extract with Strep-tagged Adriase, LC-MS/MS (Experiment 2.1)
T5 sequence (P80651 whole entry, looked up): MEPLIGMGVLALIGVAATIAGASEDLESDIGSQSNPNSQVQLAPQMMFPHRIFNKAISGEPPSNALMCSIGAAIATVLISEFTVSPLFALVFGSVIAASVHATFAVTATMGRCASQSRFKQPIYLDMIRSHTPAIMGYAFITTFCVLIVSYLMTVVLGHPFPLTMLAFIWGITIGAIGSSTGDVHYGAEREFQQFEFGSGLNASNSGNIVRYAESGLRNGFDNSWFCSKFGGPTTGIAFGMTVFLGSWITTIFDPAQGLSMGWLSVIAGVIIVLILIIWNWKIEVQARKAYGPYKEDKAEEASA

[17] = target: T6, MtrG of M. mazei (subunit of the MtrA-MtrH complex), from whole cell extract (Methanosarcina mazei); assay: as above
T6 sequence (P80656 whole entry, looked up): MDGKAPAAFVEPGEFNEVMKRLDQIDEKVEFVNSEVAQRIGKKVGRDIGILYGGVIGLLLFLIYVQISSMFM

[18] = target: T7, MtrH of M. mazei (subunit of the MtrA-MtrH complex), from whole cell extract (Methanosarcina mazei); assay: as above
T7 sequence (P80650 1-316, looked up): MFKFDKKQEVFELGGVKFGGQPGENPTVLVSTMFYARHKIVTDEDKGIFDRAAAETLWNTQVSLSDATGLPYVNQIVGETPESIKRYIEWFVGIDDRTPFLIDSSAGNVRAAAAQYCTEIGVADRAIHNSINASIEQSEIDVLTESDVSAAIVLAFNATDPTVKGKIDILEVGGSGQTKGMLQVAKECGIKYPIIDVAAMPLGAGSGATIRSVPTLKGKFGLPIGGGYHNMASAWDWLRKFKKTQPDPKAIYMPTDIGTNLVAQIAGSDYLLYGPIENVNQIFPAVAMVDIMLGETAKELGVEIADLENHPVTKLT

[19] = target: T8, MtrB of M. mazei (subunit of the MtrA-MtrH complex), from whole cell extract (Methanosarcina mazei); assay: as above
T8 sequence (P80655 whole entry, looked up): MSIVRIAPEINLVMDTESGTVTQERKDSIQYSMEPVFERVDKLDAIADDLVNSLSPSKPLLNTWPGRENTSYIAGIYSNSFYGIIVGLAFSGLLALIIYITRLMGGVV

T3 sequence (P02769 25-607 limits assumed): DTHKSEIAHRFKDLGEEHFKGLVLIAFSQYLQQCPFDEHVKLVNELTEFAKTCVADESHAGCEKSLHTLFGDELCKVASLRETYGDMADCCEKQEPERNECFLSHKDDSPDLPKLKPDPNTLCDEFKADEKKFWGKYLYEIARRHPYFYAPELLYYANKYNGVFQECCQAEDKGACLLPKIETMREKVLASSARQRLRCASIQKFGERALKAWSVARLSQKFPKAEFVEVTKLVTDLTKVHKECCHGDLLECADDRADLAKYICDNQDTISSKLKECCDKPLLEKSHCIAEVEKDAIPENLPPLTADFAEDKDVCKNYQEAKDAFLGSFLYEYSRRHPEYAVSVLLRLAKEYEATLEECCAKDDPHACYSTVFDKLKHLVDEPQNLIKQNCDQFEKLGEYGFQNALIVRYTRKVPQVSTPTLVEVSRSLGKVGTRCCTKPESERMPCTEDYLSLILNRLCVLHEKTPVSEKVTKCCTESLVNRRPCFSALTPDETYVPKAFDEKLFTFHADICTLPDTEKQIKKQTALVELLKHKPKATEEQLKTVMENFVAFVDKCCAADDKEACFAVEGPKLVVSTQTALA

B1
EC50 (read off the curve) [1]: ~400 nM
EC50 (read off the curve) [2]: ~600 nM
EC50 (read off the curve) [3]: ~200 nM
EC50 (read off the curve) [4]: ~200 nM
EC50 (read off the curve) [5]: ~100 nM
EC50 (read off the curve) [6]: ~80 nM

B2
Kd [7]: 168 nM

B3
Kd [8]: 121 nM

B4
Kd [9]: 74 nM

B5
Kd [10]: 363 nM

B6
Kd [11]: 129 nM

B7: M. jannaschii Ub-KDPGA(10) (other)
chain: MHHHHHHGSMKIKIVPAVGGGSPLELEVAPNATVGAVRTKVCAMKKLPPDTTRLTYKGRALKDTETLESLGVADGDKFVLITRTVGGCGEKDPGAIDEDPFIIEL
notes: also called Ubiquitin fused to KDPGA(10)
binding result [12]: binds

B8: M. jannaschii Adriase without NTN, with C-terminal His-tag (enzyme)
chain: MEQLRKQLIDFGKVMSIVNKIVKNGEIGVIKDGKLHLYDDYIAIDKIDPNPKVFKVVDVEGNFKDGDIVVIENGDMKIKGTNEKVTTKYIIIHKGSHHHHHH
notes: also called Adriase^ΔNTN
binding result [13]: no binding

B9: M. mazei Adriase with C-terminal His-tag (enzyme)
chain: TLVIAFIGKNGAVMAGDMREITFEGEKPDREKLEKELYSGSIVTDEEMQKKAEEFGVKITVADCKEKVSERNGVLVGEVSSAEGGVVKKRRLYASAGNFAIAELINTEMTLTSQGKGSNFIAFGNEFTKQVANKCFKDNWTKKSNLQDAVKILILCMETVARKTASVSKQFMIVQTASNADVLKVVEKDRNCGSHHHHHH
notes: Active form without start-methionine; also called M. mazei Adriase-His6; MM_2909
binding result [14]: no binding
binding result [15]: binds

B10: M. mazei Adriase with C-terminal Strep-tag (enzyme)
chain: TLVIAFIGKNGAVMAGDMREITFEGEKPDREKLEKELYSGSIVTDEEMQKKAEEFGVKITVADCKEKVSERNGVLVGEVSSAEGGVVKKRRLYASAGNFAIAELINTEMTLTSQGKGSNFIAFGNEFTKQVANKCFKDNWTKKSNLQDAVKILILCMETVARKTASVSKQFMIVQTASNADVLKVVEKDRNCGSWSHPQFEK
notes: also called MM_2909; Archaeal Peptide Recombinase
Intensity (mass spectrometry) [16]: 2.1e+06 arbitrary units
Intensity (mass spectrometry) [17]: 860000 arbitrary units
Intensity (mass spectrometry) [18]: 6e+07 arbitrary units
Intensity (mass spectrometry) [19]: 1.4e+06 arbitrary units
